The target in test [1] is Homo Kv1.3 (Homo), P22001.
Test [2] addresses T1, Mus BK (big conductance calcium-activated K channel) (Mus), Q08460.
Test [3] concerns the target T2, Rattus Kv1.1 (Rattus), P10499.
T2 chain: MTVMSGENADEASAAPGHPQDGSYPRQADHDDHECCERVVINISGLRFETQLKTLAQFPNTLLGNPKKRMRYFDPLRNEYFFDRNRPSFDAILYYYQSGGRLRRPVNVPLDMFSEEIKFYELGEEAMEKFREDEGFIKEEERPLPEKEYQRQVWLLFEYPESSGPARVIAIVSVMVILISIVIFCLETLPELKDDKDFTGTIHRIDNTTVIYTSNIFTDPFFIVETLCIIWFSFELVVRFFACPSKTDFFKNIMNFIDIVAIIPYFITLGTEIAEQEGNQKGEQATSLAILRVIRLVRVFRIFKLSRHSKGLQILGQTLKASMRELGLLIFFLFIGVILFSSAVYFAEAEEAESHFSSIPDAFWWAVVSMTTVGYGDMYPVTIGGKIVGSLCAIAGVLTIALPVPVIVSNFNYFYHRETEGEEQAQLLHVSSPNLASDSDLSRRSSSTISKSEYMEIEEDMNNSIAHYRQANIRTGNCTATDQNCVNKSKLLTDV

The target in test [4] is T3, Rattus Kv1.2 (Rattus), P63142.
T3 chain: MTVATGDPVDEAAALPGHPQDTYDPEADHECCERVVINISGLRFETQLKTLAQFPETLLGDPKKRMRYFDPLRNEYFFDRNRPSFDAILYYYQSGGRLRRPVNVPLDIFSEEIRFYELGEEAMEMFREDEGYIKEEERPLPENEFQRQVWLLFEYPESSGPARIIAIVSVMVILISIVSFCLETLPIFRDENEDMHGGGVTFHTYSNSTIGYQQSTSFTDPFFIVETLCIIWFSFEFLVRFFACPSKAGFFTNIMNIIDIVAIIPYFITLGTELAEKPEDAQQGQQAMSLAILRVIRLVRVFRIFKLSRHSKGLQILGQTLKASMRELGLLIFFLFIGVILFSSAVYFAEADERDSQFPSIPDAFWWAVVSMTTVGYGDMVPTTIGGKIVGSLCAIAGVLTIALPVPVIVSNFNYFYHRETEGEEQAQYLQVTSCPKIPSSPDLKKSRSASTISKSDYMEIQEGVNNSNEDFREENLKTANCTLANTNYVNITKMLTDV

In test [5] the target is BK channel (species not stated). In words: cell-based or functional assay.
Test [6] concerns the target Kv1.1 K+ channel (species not stated). Description: cell-based or functional assay.
Test [7] addresses Kv1.2 K+ channel (species not stated). Description: cell-based or functional assay.
Test [8] has as its target T4, Kv1.3 K+ channel, wild-type, expressed in cells (species not stated) (Homo sapiens (Human)), P22001. Description: cell-based or functional assay.
In test [9] the target is KcsA-Kv1.3 (KcsA carrying a segment of the Kv1.3 pore loop).
Test [10] deals with antiserum to sarafotoxin S6b.
Test [11] has as its target T4, Kv1.3 K+ channel, wild-type, expressed ….
For test [12] the target is unchanged. This is another data set of the same source.
Test [13] shares this target. In words: one round of phage panning on mammalian cells expressing Kv1.3.
Test [14] shares this target. Description: panning of a 2:2:96 phage mixture on HEK cells expressing Kv1.3.
For test [15] the target is unchanged. In words: phage panning on COS cells transfected with Kv1.3 vs vector; 5x10^11 phagemids.
For test [16] the target is unchanged. In words: phage panning on HEK cells transfected with Kv1.3 vs vector; 5x10^11 phagemids.
In test [17] the target is antiserum to sarafotoxin S6b. This is another data set of the same source.
Test [18] addresses Homo Kv1.3 (Homo), P22001. In words: two-electrode voltage clamp, kinetics of block in Xenopus oocytes. A general note: In two-electrode clamp one electrode senses voltage and the other passes current.
Test [19] addresses T1, Mus BK (big conductance …). The test is described as above.
For test [20], the target named is T2, Rattus Kv1.1 (Rattus), P10499. The test is described as above.
For test [21], the target named is T3, Rattus Kv1.2 (Rattus), P63142. The description is as above.
Test [22] deals with T4, Kv1.3 K+ channel, wild-type, expressed …. The source holds these as a separate data set.
Another test concerns the target T5, KcsA, wild-type, P0A334.
T5 chain: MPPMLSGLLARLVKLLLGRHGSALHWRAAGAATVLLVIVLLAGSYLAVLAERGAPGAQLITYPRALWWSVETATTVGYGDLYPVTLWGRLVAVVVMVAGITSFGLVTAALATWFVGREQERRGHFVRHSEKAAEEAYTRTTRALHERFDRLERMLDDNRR
Description: phage panning of Shk / Camel VHH mixture on KcsA (n = 17-20).

This note sets out measurements from patent US20110009283A1.

Broadly, the Ki is the equilibrium dissociation constant of an inhibitor or competing ligand from its target. The term koff denotes a measure of how fast the partners let go of each other. Usually kon stands for the rate constant with which the complex forms.

Where “and” joins values, the source holds several entries; their conditions need not be identical. Equal entries are not always repeated. Where two headings read alike, the source gives them in different places. Where no end group is shown, it is not given here.

T1 sequence (Q08460 whole entry): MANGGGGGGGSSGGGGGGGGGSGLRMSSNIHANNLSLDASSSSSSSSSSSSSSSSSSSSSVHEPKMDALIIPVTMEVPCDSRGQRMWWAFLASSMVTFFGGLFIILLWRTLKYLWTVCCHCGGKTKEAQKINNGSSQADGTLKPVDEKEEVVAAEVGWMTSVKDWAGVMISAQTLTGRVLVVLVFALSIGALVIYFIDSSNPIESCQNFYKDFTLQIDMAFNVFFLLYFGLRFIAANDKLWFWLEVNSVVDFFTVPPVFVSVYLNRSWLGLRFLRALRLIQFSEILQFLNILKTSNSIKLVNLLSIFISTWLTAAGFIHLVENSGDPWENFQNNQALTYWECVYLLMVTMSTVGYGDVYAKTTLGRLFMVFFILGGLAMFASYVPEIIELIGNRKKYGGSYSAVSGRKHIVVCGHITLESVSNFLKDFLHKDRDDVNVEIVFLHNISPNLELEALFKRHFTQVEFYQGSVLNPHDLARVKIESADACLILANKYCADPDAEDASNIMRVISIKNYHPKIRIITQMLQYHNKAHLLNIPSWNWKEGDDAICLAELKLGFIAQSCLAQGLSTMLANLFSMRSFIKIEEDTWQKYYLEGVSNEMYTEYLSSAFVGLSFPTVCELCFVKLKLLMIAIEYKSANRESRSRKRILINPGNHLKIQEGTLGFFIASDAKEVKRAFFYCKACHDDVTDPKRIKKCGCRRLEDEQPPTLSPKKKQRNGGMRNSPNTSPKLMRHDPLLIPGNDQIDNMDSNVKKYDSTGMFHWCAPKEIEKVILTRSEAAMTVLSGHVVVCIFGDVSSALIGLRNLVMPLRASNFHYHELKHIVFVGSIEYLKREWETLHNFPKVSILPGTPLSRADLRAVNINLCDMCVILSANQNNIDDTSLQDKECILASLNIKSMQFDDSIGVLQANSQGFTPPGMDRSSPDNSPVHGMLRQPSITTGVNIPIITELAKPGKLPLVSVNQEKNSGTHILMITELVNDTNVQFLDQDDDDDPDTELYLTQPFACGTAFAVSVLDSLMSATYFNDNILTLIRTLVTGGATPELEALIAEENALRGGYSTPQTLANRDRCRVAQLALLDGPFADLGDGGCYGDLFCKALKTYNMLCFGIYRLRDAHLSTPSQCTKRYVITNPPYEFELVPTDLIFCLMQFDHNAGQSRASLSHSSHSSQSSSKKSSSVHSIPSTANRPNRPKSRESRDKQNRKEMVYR
Chain of Homo Kv1.3 (Homo), P22001 (P22001 whole entry): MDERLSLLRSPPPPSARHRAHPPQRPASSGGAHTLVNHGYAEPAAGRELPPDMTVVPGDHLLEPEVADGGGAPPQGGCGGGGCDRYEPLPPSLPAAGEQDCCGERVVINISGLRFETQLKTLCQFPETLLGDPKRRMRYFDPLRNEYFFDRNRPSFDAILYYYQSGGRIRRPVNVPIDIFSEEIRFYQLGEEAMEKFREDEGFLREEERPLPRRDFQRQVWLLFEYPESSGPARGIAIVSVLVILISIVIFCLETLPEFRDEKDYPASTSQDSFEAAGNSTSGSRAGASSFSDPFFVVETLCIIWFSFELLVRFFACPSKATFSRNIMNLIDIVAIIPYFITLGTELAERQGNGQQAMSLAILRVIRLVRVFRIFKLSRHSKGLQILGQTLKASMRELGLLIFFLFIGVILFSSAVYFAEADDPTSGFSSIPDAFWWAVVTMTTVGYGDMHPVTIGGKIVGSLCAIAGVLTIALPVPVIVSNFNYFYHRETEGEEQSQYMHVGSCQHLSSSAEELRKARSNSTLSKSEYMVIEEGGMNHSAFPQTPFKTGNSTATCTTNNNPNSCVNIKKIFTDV
T4 sequence (P22001 whole entry): as above

Turning to ZFTNVSCTTSKECWSVCQRLHNTSRGKCMNKKCRCYS (modifications not checked) [Charybdotoxin (CTX)], the Ki was 0.9 nM in [1], 5 nM in test [2], greater than 1000 nM in test [3] and 9 nM in test [4]. Further, the approximate IC50 (nM) of channel block was determined as 3 nM in test [5], 1500 nM in test [6], 5.6 nM in test [7] and 2.5 nM in test [8].

B1: sarafotoxin S6b phage (peptide)
chain: CSCKDMTDKECLYFCHQDVIW
modifications: cysteine pairing not given here; also: displayed on phage via linker and coat protein
Consider B1, for which the results for the Output (% Ligands) in [9] and in test [10] were 0% and 100%, respectively.

For the molecule GVEINVKCSGSPQCLKPCKDAGMRFGKCMNRKCHCTPK (modifications not checked) [Kaliotoxin-1 phage (KTX-phage)], the output KTX (%) in test [11] is 22% and 30% and 26%. In test [12], this molecule yielded a % of recovered phage, 2nd round of 0% and a % of recovered phage, 3rd round of 58%. Moreover, in test [8], the block of Kv1.3 currents, whole-cell patch-clamp in HEK293 cells, 1 nM KTX-phage was 35% and the time to half reversal of inhibition on washing is 20 min. For the same molecule, the Fold Enrichment in test [13] is 4.3 fold and 5.2 fold. Moreover, the % of phages after the 2nd panning in test [14] is 40%. In [15], this molecule yielded a fold enrichment (Kv1.3-transfected vs vector cells) of 10 fold. This molecule registered a fold enrichment (Kv1.3-transfected vs vector cells) in [16] of 20 fold. For the same molecule, the Output (% Ligands) in [17] amounted to 0%.

As for GVPINVSCTGSPQCIKPCKDAGMRFGKCMNRKCHCTPK (modifications not checked) [Agitoxin-2 (AgTx2)], the Ki in test [1] worked out at 0.041 nM; in test [3], 0.17 nM; in test [4] it was 3.4 nM. In addition, the approximate IC50 (nM) of channel block in test [5] turned out to be 1150 nM; in test [6], 0.04 nM; in [7] it was 26.8 nM; in test [8], 0.004 nM.

Consider GVEINVKCSGSPQCLKPCKDAGMRFGKCMNRKCHCTPK (modifications not checked) [Kaliotoxin-1 (KTX)], for which the Ki in test [1] was found to be 0.008 nM; in test [2], 1.6 nM; in [3], 1.1 nM; in test [4], 20 nM. Further, the approximate IC50 (nM) of channel block in [5] came out at 5 nM; in test [6], 0.1 nM; in test [7], 1.4 nM; in test [8], 0.5 nM. The koff in test [18] was 0.007 s⁻¹; in test [19], 0.0211 s⁻¹; in test [20], 0.009 s⁻¹; in test [21], 0.21 s⁻¹. Besides, the kon in test [18] turned out to be 8e+08 M⁻¹ s⁻¹; in test [19], 21000 M⁻¹ s⁻¹; in [20] it was 3e+07 M⁻¹ s⁻¹; in test [21], 1.3e+07 M⁻¹ s⁻¹.

Turning to GVEINVKCSGSPQCLKPCKDAGMDFGDCMNDKCHCTPK (modifications not checked) [DDD-KTX-phage (inactive kaliotoxin-1, R24D, K27D, R31D, on phage)], in test [22], the # of genotype, Test came to 2 colonies and the % of genotype, Test amounted to 10%. Besides, in test [12], the % of recovered phage, 2nd round stood at 100% and the % of recovered phage, 3rd round stood at 42%.

As for RSCIDTIPKSRCTAFQCKHSMKYRLSFCRKTCGTC (modifications not checked) [Shk phage (sea anemone K+ channel toxin ShK on phage)], in the test with KcsA, wild-type, P0A334, the % phages, OUTPUT came to 0%.
